Test results reported in the supplement of paper PMC9233669.
Variants at the floor of the assay were thinned out.

Legend:
biotinyl-Trp-oxazolone = experiment: self-aminoacylation, catalytic enhancement (BWO) (fold over background); higher = more active; k-Seq, kA / k0A0; sequences stand for … in GGGAAUGGAUCCACAUCUACGAAUUC…UUCACUGCAGACUUGACGAAGCUG
Method in brief: (§1)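 Catalytic enhancement equals the median kA over the uncatalyzed rate, the latter read from the low-activity peak of a bimodal Gaussian fit. Values of kA came from fitting each sequence's fraction reacted to a pseudo-first-order model, with 1000 bootstraps. Reacted RNA was captured with streptavidin and quantified by triplicate qPCR and Illumina sequencing after 90 minutes at room temperature with 2–1250 μM biotinyl-aminoacyl-oxazolone and 0.43 μM mutagenized RNA pools bearing a 21-nt variable region.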

biotinyl-Phe-oxazolone = experiment: self-aminoacylation, catalytic enhancement (BFO) (fold over background); higher = more active; k-Seq, kA / k0A0; sequences stand for … in GGGAAUGGAUCCACAUCUACGAAUUC…UUCACUGCAGACUUGACGAAGCUG
Method in brief: as §1

biotinyl-Met-oxazolone = experiment: self-aminoacylation, catalytic enhancement (BMO) (fold over background); higher = more active; k-Seq, kA / k0A0; sequences stand for … in GGGAAUGGAUCCACAUCUACGAAUUC…UUCACUGCAGACUUGACGAAGCUG
Method in brief: as §1

biotinyl-Ile-oxazolone = experiment: self-aminoacylation, catalytic enhancement (BIO) (fold over background); higher = more active; k-Seq, kA / k0A0; sequences stand for … in GGGAAUGGAUCCACAUCUACGAAUUC…UUCACUGCAGACUUGACGAAGCUG
Method in brief: as §1

biotinyl-Leu-oxazolone = experiment: self-aminoacylation, catalytic enhancement (BLO) (fold over background); higher = more active; k-Seq, kA / k0A0; sequences stand for … in GGGAAUGGAUCCACAUCUACGAAUUC…UUCACUGCAGACUUGACGAAGCUG
Method in brief: as §1

biotinyl-Val-oxazolone = experiment: self-aminoacylation, catalytic enhancement (BVO) (fold over background); higher = more active; k-Seq, kA / k0A0; sequences stand for … in GGGAAUGGAUCCACAUCUACGAAUUC…UUCACUGCAGACUUGACGAAGCUG
Method in brief: as §1

| Sequence | self-aminoacylation (biotinyl-Trp-oxazolone) | self-aminoacylation (biotinyl-Phe-oxazolone) | self-aminoacylation (biotinyl-Met-oxazolone) | self-aminoacylation (biotinyl-Ile-oxazolone) | self-aminoacylation (biotinyl-Leu-oxazolone) | self-aminoacylation (biotinyl-Val-oxazolone) |
| --- | --- | --- | --- | --- | --- | --- |
| CUACGUCUAACAAUCGGUCUG [Fam1A.1 aminoacylation ribozyme variant] | 0.703 | 1.21 | 0.918 | 0.89 | 0.941 | 0.856 |
| CUACGUUAAACAAUCGGUCUG [Fam1A.1 aminoacylation ribozyme variant] | 1.05 | 0.927 | 1.16 | 1.19 | 1.17 | 1.19 |
| CUACUACAAAAAAUCGGUCUG [Fam1A.1 aminoacylation ribozyme variant] | 0.762 | 0.76 | 0.857 | 0.774 | 0.678 | 0.765 |
| CUACUACAAACAAUCGAUCUG [Fam1A.1 aminoacylation ribozyme variant] | 0.665 | 0.759 | 0.52 | 0.808 | 0.593 | 0.719 |
| CUACUACAAACAAUCGGUAUG [Fam1A.1 aminoacylation ribozyme variant] | 0.505 | 0.567 | 0.597 | 0.617 | 0.454 | 0.584 |
| CUACUACAAACACUCGGUCUG [Fam1A.1 aminoacylation ribozyme variant] | 0.703 | 0.434 | 0.856 | 1.08 | 0.902 | 1.03 |
| CUACUACAAUCAAUCGGUCUG [Fam1A.1 aminoacylation ribozyme variant] | 0.669 | 0.981 | 0.616 | 0.767 | 0.699 | 0.682 |
| CUACUCCAAACAAUCGCUCUG [Fam1A.1 aminoacylation ribozyme variant] | 0.596 | 1.32 | 0.783 | 1.11 | 0.949 | 0.884 |
| CUACUCCAAACAAUCGGUCUA [Fam1A.1 aminoacylation ribozyme variant] | 1.05 | 2.18 | 0.638 | 0.767 | 0.746 | 0.808 |
| CUACUCCAAACAAUGGGUCUG [Fam1A.1 aminoacylation ribozyme variant] | 0.754 | 0.772 | 0.784 | 0.948 | 0.799 | 0.863 |
| CUACUCCAAACAGUCGGUCUG [Fam1A.1 aminoacylation ribozyme variant] | 0.323 | 3.1 | 0.958 | 0.953 | 1.1 | 1.06 |
| CUACUCCAAACGAUCGGUCUG [Fam1A.1 aminoacylation ribozyme variant] | 0.445 | 0.979 | 0.643 | 0.854 | 0.91 | 0.812 |
| CUACUCCUAACAAUCGGUCUG [Fam1A.1 aminoacylation ribozyme variant] | 0.441 | 0.659 | 0.504 | 0.748 | 0.667 | 0.774 |
| CUACUGCAAACAAUCGCUCUG [Fam1A.1 aminoacylation ribozyme variant] | 0.702 | 3.05 | 0.898 | 1.2 | 1.2 | 1.08 |
| CUACUGCAAACAAUCGGUCUA [Fam1A.1 aminoacylation ribozyme variant] | 0.72 | 0.688 | 0.868 | 0.876 | 0.858 | 0.871 |
| CUACUGGAAACAAUCGGUCUG [Fam1A.1 aminoacylation ribozyme variant] | 0.514 | 0.507 | 0.933 | 0.887 | 0.885 | 0.837 |
| CUACUUAAAACAAUCAGUCUG [Fam1A.1 aminoacylation ribozyme variant] | 0.512 | 0.689 | 0.723 | 0.877 | 0.715 | 0.915 |
| CUACUUAAAACAAUCGGUAUG [Fam1A.1 aminoacylation ribozyme variant] | 0.339 | 0.513 | 0.55 | 0.556 | 0.53 | 0.574 |
| CUACUUAAAACAAUCGGUCAG [Fam1A.1 aminoacylation ribozyme variant] | 0.384 | 0.552 | 0.703 | 0.636 | 0.66 | 0.79 |
| CUACUUAAAACAAUCGGUGUG [Fam1A.1 aminoacylation ribozyme variant] | 1.17 | 0.821 | 0.72 | 0.596 | 0.96 | 0.684 |
| CUACUUAAAACAAUGGGUCUG [Fam1A.1 aminoacylation ribozyme variant] | 0.653 | 0.9 | 1.28 | 1.05 | 1.03 | 1.05 |

| Sequence | self-aminoacylation (biotinyl-Trp-oxazolone) | self-aminoacylation (biotinyl-Phe-oxazolone) | self-aminoacylation (biotinyl-Met-oxazolone) | self-aminoacylation (biotinyl-Ile-oxazolone) | self-aminoacylation (biotinyl-Leu-oxazolone) | self-aminoacylation (biotinyl-Val-oxazolone) |
| --- | --- | --- | --- | --- | --- | --- |
| CUACUUAAAUCAAUCGGUCUG [Fam1A.1 aminoacylation ribozyme variant] | 0.691 | 0.911 | 0.702 | 0.887 | 0.793 | 0.91 |
| CUACUUCAAAAAAUCGCUCUG [Fam1A.1 aminoacylation ribozyme variant] | 0.727 | 0.901 | 0.492 | 0.539 | 0.486 | 0.484 |
| CUACUUCAAAAAAUCGGUCUA [Fam1A.1 aminoacylation ribozyme variant] | 2.39 | 4.37 | 0.725 | 0.842 | 0.79 | 0.697 |
| CUACUUCAAAAGAUCGGUCUG [Fam1A.1 aminoacylation ribozyme variant] | 0.938 | 1.08 | 0.728 | 0.973 | 0.859 | 0.724 |
| CUACUUCAAACAAACGGGCUG [Fam1A.1 aminoacylation ribozyme variant] | 0.862 | 1.65 | 0.993 | 1.2 | 0.999 | 0.934 |
| CUACUUCAAACAAACGGUCAG [Fam1A.1 aminoacylation ribozyme variant] | 0.787 | 0.883 | 0.6 | 0.73 | 0.581 | 0.682 |
| CUACUUCAAACAAACUGUCUG [Fam1A.1 aminoacylation ribozyme variant] | 0.5 | 0.742 | 0.562 | 0.684 | 0.547 | 0.717 |
| CUACUUCAAACAACCCGUCUG [Fam1A.1 aminoacylation ribozyme variant] | 0.923 | 0.796 | 0.657 | 0.906 | 0.911 | 1.04 |
| CUACUUCAAACAACCGGUCUC [Fam1A.1 aminoacylation ribozyme variant] | 0.734 | 0.745 | 0.724 | 0.933 | 0.619 | 0.728 |
| CUACUUCAAACAACUGGUCUG [Fam1A.1 aminoacylation ribozyme variant] | 0.661 | 0.753 | 0.603 | 0.734 | 0.678 | 0.654 |
| CUACUUCAAACAAGCAGUCUG [Fam1A.1 aminoacylation ribozyme variant] | 0.577 | 1.06 | 0.751 | 0.882 | 0.794 | 0.775 |
| CUACUUCAAACAAGCGGUCUG [Fam1A.1 aminoacylation ribozyme variant] | 0.693 | 0.819 | 0.822 | 0.933 | 0.825 | 0.871 |
| CUACUUCAAACAAUAGUUCUG [Fam1A.1 aminoacylation ribozyme variant] | 0.325 | 0.553 | 0.53 | 0.624 | 0.532 | 0.511 |
| CUACUUCAAACAAUCAAUCUG [Fam1A.1 aminoacylation ribozyme variant] | 0.669 | 1.73 | 0.683 | 0.794 | 0.602 | 0.767 |
| CUACUUCAAACAAUCAGUCUA [Fam1A.1 aminoacylation ribozyme variant] | 5.04 | 15.7 | 0.841 | 0.871 | 0.776 | 0.9 |
| CUACUUCAAACAAUCAGUGUG [Fam1A.1 aminoacylation ribozyme variant] | 0.975 | 2.23 | 0.936 | 0.867 | 0.745 | 0.972 |
| CUACUUCAAACAAUCAGUUUG [Fam1A.1 aminoacylation ribozyme variant] | 6.56 | 15.7 | 0.779 | 0.803 | 0.861 | 0.73 |
| CUACUUCAAACAAUCCCUCUG [Fam1A.1 aminoacylation ribozyme variant] | 0.44 | 0.842 | 0.68 | 0.74 | 0.558 | 0.525 |
| CUACUUCAAACAAUCCGUAUG [Fam1A.1 aminoacylation ribozyme variant] | 0.715 | 0.759 | 0.65 | 0.723 | 0.769 | 0.81 |
| CUACUUCAAACAAUCCGUCUG [Fam1A.1 aminoacylation ribozyme variant] | 1.26 | 1.92 | 0.673 | 0.788 | 0.661 | 0.806 |
| CUACUUCAAACAAUCCGUUUG [Fam1A.1 aminoacylation ribozyme variant] | 0.87 | 0.704 | 0.594 | 0.694 | 0.674 | 0.77 |
